US20180208666A1 (VENTANA MEDICAL SYSTEMS, published 2018)
Ends that are not written are not given here.

What was measured:
human OX40 = target: T1, human OX40 (human, UniProt P43489 29-277); experiment: IHC on FFPE OX-40 transfected cells and FFPE tissues, ultraView DAB detection
T1 construct: no signal peptide limits are stated
T1 sequence: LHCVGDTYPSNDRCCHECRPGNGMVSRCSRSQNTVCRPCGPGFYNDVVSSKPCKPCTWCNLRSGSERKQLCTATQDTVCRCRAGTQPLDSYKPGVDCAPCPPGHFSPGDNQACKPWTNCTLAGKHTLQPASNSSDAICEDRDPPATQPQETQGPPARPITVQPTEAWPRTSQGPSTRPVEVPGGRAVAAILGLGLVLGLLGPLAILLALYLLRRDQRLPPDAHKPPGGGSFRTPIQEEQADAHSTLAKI
Protocol: IHC was performed using StdCC1 cell conditioning with ultraView Universal DAB Detection Kit (Ventana Medical Systems, Inc., Tucson, Ariz.). Primary antibody was incubated for 16 min at 37° C. on a BenchMark ULTRA automated slide stainer (Ventana Medical Systems, Inc., Tucson, Ariz.). Results are shown at Fig. (A) Mock transfected cells (negative control cells); (B) OX-40 transfected cells (positive control cells); (C) Reactive lymph node; and (D) Prostate adenocarcinoma.

[1] = target: T2, peptide fragment of amino acid residues 266-277 of OX40 (human, also: conjugated to KLH for immunisation); experiment: ELISA screen of antibody-expressing cells on the OX40 antigen (peptide 266-277)
T2 construct: It was conjugated to KLH for immunisation; also called OX40 antigen; 12-amino acid fragment
T2 peptide: EQADAHSTLAKI
From the text: Anti-OX40 rabbit monoclonal antibodies were generated as schematically depicted in FIG. 1. Briefly, the peptide fragment of amino acid residues 266-277 of was synthesized. The 12-amino acid fragment intended for immunization was conjugated to keyhole limpet hemocyanin (KLH), an extensively used carrier protein for stimulating a substantial immune response via antibody production. New Zealand White rabbits were immunized with KLH conjugated OX40 antigen emulsified with complete Freund's adjuvant followed by a series of OX40 antigen booster emulsified with incomplete Freund's adjuvant. The antibody-expressing cells were screened by enzyme-linked immunoabsorbant assay (ELISA) using the OX40 antigen. All ELISA positive clones were further screened by immunohistochemistry (IHC), and the clone producing the antibody with the highest specificity was selected. For recombinant production of anti-OX40 antibodies, cDNA coding for the heavy chain and light chain sequences of the antibodies were cloned, expressed by co-transfection, and screened for binding to OX40 by IHC. Anti-OX40 monoclonal antibody SP197 was produced using these methods and subsequently purified by Protein A affinity chromatography. The heavy and light chain variable region sequences of the SP197 antibody are as follows.

B1: Anti-OX40 monoclonal antibody SP197 (antibody, V domains shown)
VH: QSLEESGGRLVAPGGSLTLTCTVSGIDLSSDNIQWVRQAPGKGLEWIGAVDYNNKPFYANWAKGRFTISKTSSTTVDLKMTSLTTEDTATYFCAKNTFSPWGPGTLVTVSS
VL: DPAMTQTPSSTSAAVGGTVTINCQSSQSVYNANHLSWFQQKPGQPPKRLIYYISTPDSGVPPRFSGSGSGTQFTLTISGVQCDDAATYYCAALNSDEVFTFGGGTEVVVK
notes: also called rabbit anti-human OX-40 monoclonal antibody (SP197); anti-OX40 antibody SP197
- binding result (human OX40): binds
- binding result [1]: binds
